Reference: patent publication US20240166738A1 (Alector, published 2024)

B1: TM-82 (antibody, V domains shown)
VH: QVQLQQSGAELVRPGTSVRVSCKASGYAFTNYLIEWIKQRPGQGLEWIGVINPGSGITDYSEKFKGKARLTADKSSSTAYMQLSSLTSDDSAVYFCTRSPFITTVVADYWGQGTTVTVSS
VL: DVVVTQTPLSLPVSFGDQVSISCRSSQSLANTYGNTYLSWYLHTPGQSPQLLIFGISNRFSGVPDRFSGSGSGTDFTLKISTIKPEDLGVYYCLQGTHPPRTFGGGTKLEMK
B2: TM-66 (antibody, V domains shown)
VH: EVMLVESGGALVEPGGSLKLSCAASGITFSNYAMSWIRQTPEKRLEWVATIGSVGSYTYYPDSVKGRFTISRDNARNTLYLQMSSLRSEDTAMYYCARQEGSSHFDYWGQGTTLTVSS
VL: DVVVTQTPPSLPVSFGDQVSISCRSSQSLVNSYGKTFLSWYLHKPGQSPQLLIYGISNRFSGVPDRFSGSGSGTVFTLKISTIKPEDLGMYYCLQGTHPPLTFGAGTKLEMK
notes: mouse hybridoma mAb
B3: TM-75 (antibody, V domains shown)
VH: EVQLQQSGPELVKPGASVKMSCKASGYTFTSYVMHWVKQKPGQGLEWIGYINPYNDGTKYNEKFKGKATLTSDKSSSTAYMELSSLTSEDSAVYYCARGGWFPYAMDYWGQGTTVTVSS
VL: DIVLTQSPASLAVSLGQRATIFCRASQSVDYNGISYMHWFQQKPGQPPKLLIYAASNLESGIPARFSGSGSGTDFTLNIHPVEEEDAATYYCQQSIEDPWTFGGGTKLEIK
notes: mouse hybridoma mAb
B4: TM-31 (antibody, V domains shown)
VH: QVQLQQSGAELAKPGASVKVSCKASGYTFISYWMNWVKQRPGQGLEWIGYINPTSGYTRYNQKFKDKATLTADKSSSTAYMQLSSLTYEDSAVYYCARSPPTVVLIGYFDYWGQGTTLTVSS
VL: DIKMTQSPSSMYASLGERVTFTCKASQDINSYLSWFQQKPGKSPKTLIYRGNGLVDGVPSRFSGSGSGQDYSLTISSLEYEDMGIYYCLQYDEFPFTFASGTKLEIK
notes: mouse hybridoma mAb
B5: TM-8 (antibody, V domains shown)
VH: QIQLVQSGPELKKPGETVKISCKASGYTFTDYPMHWVKQAPGKGFKWMGVIYTDTGEPKYAEVFKGRFAFSLETSASTAYLQINNLKNEDTATYFCVRRLAYWGQGTLVTVSA
VL: DIKMTQSPSSMYASLGERVTITCKASQDINSYLSWFQQKPGKSPKTLIFRANRLVDGVPSRFSGSGSGQDYSLTISSLEYEDMGIYYCLQYDEFPLTFGAGTKLEMK
notes: mouse hybridoma mAb
B6: TM-62 (antibody, V domains shown)
VH: QVQLQQPGTELVRPGSSVKLSCKAAGYTFTRYWMHWVKQRPIQGLEWIGNIDPSDSETQYNPKFKDKATLTVDRSSSTAYMHLSSLTSEDSAVYYCARLTTLDYAMDYWGQGTSVTVSS
VL: QIVLTQSPAIMSASPGEKVTISCSASSSVSYMYWYQQKAGSSPKPWIHRTSNLASGVPARFSGSGSGTSYSLTIRSMEAEDAATYYCQQYHSYPPTFGVGTKLELK
notes: mouse hybridoma mAb
B7: TM-27 (antibody, V domains shown)
VH: QVQLQQSGAELVRPGTSVKVSCKASGYALTNYLIEWVKQRPGQGLEWIGVINPGSGSTKYNEKFKGKATLTADKSSSTAYMQLSSLTSEDSAVYFCARIIYDHDWYFDVWGTGTTVTVSS
VL: QIVLTQSPAIMSASPGEKVTISCSASSSISYMYWYQQKPGSSPKPWIYRTSTLASGVPARFSGSGSGTSYSLTISSMEAEDAATYYCQQYHSYPRTFGGGTKLEIK
notes: mouse hybridoma mAb
B8: TM-49 (antibody, V domains shown)
VH: QVQLQQPGAELVRPGSSVKLSCKASGYTFTRFWMHWVKQRPIQGLEWIGNIDPSDSQTHYNQKFKDKATLTVDKSSSTAYMQLSSLTSEDSAVYYCARLITVDYAMDYWGQGTSVTVSS
VL: QIVLTQSPAIMSASPGEKVTISCSASSSVSYMYWYQQKPGSSPKPWIHRTSNLASGVPVRFSGSGSGTSYSLTISSMEAEDAATYYCQQYHSYPPTFGAGTKLELK
notes: mouse hybridoma mAb
B9: TM-12 (antibody, V domains shown)
VH: EVQLQQSGAELMRPGASVKLSCTASGFNIQDYYMYWVKQRPEQGLEWIGRIDPEDGDAEYAPKFQGKATMTADTSSNTAYLQLSSLTSEDTAVYYCSTRVIYDGYYRTMDCWGQGTSVTVSS
VL: DVLMTQIPLSLPVSLGDQASISCRSSQTIVHSNGNTYLEWYLKKPGQSPKLLIDKISNRFSGVPDRFSGSGSGTDFTLKISRVEAEDLGVYYCFQGSHVPYTFGGGTKLEIK
B10: TM-56 (antibody, V domains shown)
VH: QVHLQQSGAELAKPGASVKLSCKASGYTFTSYWMHWVKQRPGQGLEWIGYINPSSGYSKYNQRFKDKATLTADKSSTTAYMHLSSLTYADSAVYYCTREGGSISDWYFDVWGTGTTVTVSS
VL: DIEMTQAAPSVPVTPGESVSISCRSSKSLLQNNGNTYLYWFLQRPGQPPQLLIYRMSNLASGVPDRFSGSGSGTAFTLRISRVEAEDVGVYYCMQHLEYPYTFGGGTKLEIK
notes: mouse hybridoma mAb
B11: TM-2 (antibody, V domains shown)
VH: HIQLVQSGPELKKPGETVKISCKASGYTFTEYPMHWVKQAPGKGFRWMGMIYTNTGEPTYAAEFKGRFAFSLETSASTGYLQINNLKNEDSATYFCVTAGYWGQGTLVTVSA
VL: QIVLTQSPAILSASPGEKVTMTCRASSSVSYIHWFLQKPGSSPKPWIYATSNLASGVPFRFIGSGSGTSYSLTISGVEAEDSATYYCQQWSSNPSTFGAGTKLELK
notes: mouse hybridoma mAb
B12: TM-81 (antibody, V domains shown)
VH: QVQLQQSGAELVKPGASVKLSCKASGYTFTSYWMHWVKQRPGQGLEWIGNIDPSDSEIHYNQKFKDKATLTVDKSSSTAYIQLSSLTSEDSAVYYCARSPAGQILDYWGQGTTVTVSS
VL: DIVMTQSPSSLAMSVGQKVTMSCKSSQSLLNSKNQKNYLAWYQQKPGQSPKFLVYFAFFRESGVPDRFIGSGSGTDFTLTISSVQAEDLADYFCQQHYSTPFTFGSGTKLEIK
notes: mouse hybridoma mAb
B13: TM-85 (antibody, V domains shown)
VH: QVQLQQPGAELVRAGTSVKLSCKASGYTFIGYWMHWVKQRPGRGLEWIGRIDPYSGDTRYNEKFKNKATLTVDKPSSTAYMQLSSLTSEDSAVYYCARYGLGHAMDYWGQGTSVTVSS
VL: DIAMSQSQKFMSTSVGDRVSVTCKASQNVGTNVAWYQQKPGQSPKALIYSASYRYSGVPDRFTGSGSGTDFTLTISNVQSEDLAEYFCQQYNSYPLTFGAGTKLEMK
notes: mouse hybridoma mAb
B14: TM-52 (antibody, V domains shown)
VH: QVQLQQPGAELVKPGASVKLSCKASGYTFTNYWMHWVKQRPGQGLDWIGNIDPSDSETHYNQKFKDKATLTVDKVSSTAYMQLSSLTSEDSAVYYCARRGYYGRSPFAYWGQGTLVTVSA
VL: ENVLTQSPAIMSASPGEKVTMTCSASSSVSYMHWYQQKSNTSPKLWIYDTSKLASGVPGRFSGSGSGNSYSLTISSAEAEDVATYYCFQGSGYPLTFGAGTKLELK
notes: mouse hybridoma mAb
B15: TM-69 (antibody, V domains shown)
VH: QVQLKESGPDLVQPSQTLSLTCTVSGFSFTSYGVHWVRQPPGKGLEWVGIMGWDDKKYYNSALKSRLSISRDTSKNQVFLKLSSLQTEDTAMYYCTREAGPYGMDYWGQGTSVTVSS
VL: DVVMTQTPLSLPVSLGDQASISCRSSQSLVHSNGNTYLHWYLQKPGQSPKLLIYKVSNRFSGVPDRFSGSGSGTDFTLKISRVEAEDLGVYFCSQNTHVPLTFGAGTKLELK
notes: mouse hybridoma mAb
B16: TM-33 (antibody, V domains shown)
VH: EFQLQQSGPELVKPGASVKISCKASGYSFTDYNMNWVKQSNGKSLEWIGVINPNYGTTSYNQKFKGKATLTVDQSSSTAYMQLNSLTSEDSAVYYCASSYWGQGTLVTVSA
VL: DIVMTQSQKFMSTTVGDRVSITCKASQNVGTAVAWYQQKPGQSPKLLIYSASNRYTGVPDRFTGSGSGTDFTLTISNMQSEDLADYFCQQYSSYPYTFGGGTKLEIK
notes: mouse hybridoma mAb
B17: TM-14 (antibody, V domains shown)
VH: QVQLQQSGPELVRPGTSVKVSCKASGYAFTNYLIEWVKQRPGQGLEWIGVINPGGGNTDYSEKFKDKATLTADKSSNTAYIQLSSLTSEDSAVYFCARSPYSSYVGYAVDYWGQGTSVTVSS
VL: DIQMTQSPSSLSASLGERVSLTCRASQDIGSNLNWLQQEPDGTIKRLIYATSSLDSGVPKRFSGSRSGSDYSLTISSLESEDFVVYYCLQYASSPRTFGGGTRLEIK
notes: mouse hybridoma mAb
B18: TM-6 (antibody, V domains shown)
VH: QVQLQQSGAELVKPGASVKLSCKASGYTFTEYTIHWVKQRSGQGLEWIGWFYPGSTYIDYNEKFKDKATLTADKSSSTVYLELSRLTSEDSAVYFCARHEEDYSNWFPFWGQGTLVTVSA
VL: DIQMSQSSSYLSVSLGGRVTITCKASDHINNWLAWYQQKPGNAPRLLISGATSLETGVPSRFSGSGSGKDYTLSITSLQTEDVATYYCQQYWSSPYTFGGGTKLEIK
notes: mouse hybridoma mAb
B19: TM-65 (antibody, V domains shown)
VH: QVQLQQPGAEFVKPGASVRLSCKTSGYTFTSSWMHWVKQRPGQGLEWIGEINPKNGGTNYNEKFKTKATLTVDKSSNTAYMQLSSLTSEDSAVYYCTIPTWFTYWGQGTLVTVSS
VL: DIQMNQSPSSLSASLGDTITITCRASQNINIWLSWYQQKPGNVPKLLIYKASNLHTGVPSRFSGSGSGTGFTLTISSLQPEDIATYYCLQGQSYPYTFGGGTKLGIK
notes: mouse hybridoma mAb

Experiments:
human TMEM106B = human TMEM106B (human, UniProt Q9NUM4 2-274); experiment: cell-based or functional assay; further: test concentration or dose not given here
[1] = molecular target: T1, GST-TMEM106B (truncated, comprising amino acids 122-210 of SEQ ID NO:1) (human, UniProt Q9NUM4 122-210); experiment: pre-mix epitope binning, antibody immobilized on chip array
T1 construct: GST written first by the name only; also called truncated GST-TMEM106B fusion protein; GST-TMEM106B polypeptide fusion; not shown: GST fusion partner

Binder | % Protection from CPE (human TMEM106B) [%] | binding result [1]
B1 | 3.2 | 
B2 | 5.9 | no binding (tested: 55 nM antigen (2 ug/mL))
B3 | 5.1 | no binding (tested: 55 nM antigen (2 ug/mL))
B4 | 7.7 | no binding (tested: 55 nM antigen (2 ug/mL))
B5 | 3.8 | no binding (tested: 55 nM antigen (2 ug/mL))
B6 | 84.2 | no binding (tested: 55 nM antigen (2 ug/mL))
B7 | 5.2 | no binding (tested: 55 nM antigen (2 ug/mL))
B8 | 49.6 | no binding (tested: 55 nM antigen (2 ug/mL))
B9 | 95.9 | 
B10 | 89.7 | no binding (tested: 55 nM antigen (2 ug/mL))
B11 | 4.3 | no binding (tested: 55 nM antigen (2 ug/mL))
B12 | 4.6 | no binding (tested: 55 nM antigen (2 ug/mL))
B13 | 5.2 | no binding (tested: 55 nM antigen (2 ug/mL))
B14 | 3.6 | no binding (tested: 55 nM antigen (2 ug/mL))
B15 | 4.3 | no binding (tested: 55 nM antigen (2 ug/mL))
B16 | 4.4 | no binding (tested: 55 nM antigen (2 ug/mL))
B17 | 4 | no binding (tested: 55 nM antigen (2 ug/mL))
B18 | 4.4 | no binding (tested: 55 nM antigen (2 ug/mL))
B19 | 4 | no binding (tested: 55 nM antigen (2 ug/mL))
